The values that follow come from IntAct's records for PubMed 19081057.

B1: E3 ubiquitin-protein ligase pellino homolog 2 (Homo sapiens), Q9HAT8 (parent)
chain: MFSPGQEEHCAPNKEPVKYGELVVLGYNGALPNGDRGRRKSRFALYKRPKANGVKPSTVHVISTPQASKAISCKGQHSISYTLSRNQTVVVEYTHDKDTDMFQVGRSTESPIDFVVTDTISGSQNTDEAQITQSTISRFACRIVCDRNEPYTARIFAAGFDSSKNIFLGEKAAKWKNPDGHMDGLTTNGVLVMHPRGGFTEESQPGVWREISVCGDVYTLRETRSAQQRGKLVESETNVLQDGSLIDLCGATLLWRTADGLFHTPTQKHIEALRQEINAARPQCPVGLNTLAFPSINRKEVVEEKQPWAYLSCGHVHGYHNWGHRSDTEANERECPMCRTVGPYVPLWLGCEAGFYVDAGPPTHAFTPCGHVCSEKSAKYWSQIPLPHGTHAFHAACPFCATQLVGEQNCIKLIFQGPID

Variants of B1 are the subject of this test. Particulars: with irak1_human IRAK1, P51617.
irak1_human IRAK1, P51617, sequence (P51617 whole entry, looked up): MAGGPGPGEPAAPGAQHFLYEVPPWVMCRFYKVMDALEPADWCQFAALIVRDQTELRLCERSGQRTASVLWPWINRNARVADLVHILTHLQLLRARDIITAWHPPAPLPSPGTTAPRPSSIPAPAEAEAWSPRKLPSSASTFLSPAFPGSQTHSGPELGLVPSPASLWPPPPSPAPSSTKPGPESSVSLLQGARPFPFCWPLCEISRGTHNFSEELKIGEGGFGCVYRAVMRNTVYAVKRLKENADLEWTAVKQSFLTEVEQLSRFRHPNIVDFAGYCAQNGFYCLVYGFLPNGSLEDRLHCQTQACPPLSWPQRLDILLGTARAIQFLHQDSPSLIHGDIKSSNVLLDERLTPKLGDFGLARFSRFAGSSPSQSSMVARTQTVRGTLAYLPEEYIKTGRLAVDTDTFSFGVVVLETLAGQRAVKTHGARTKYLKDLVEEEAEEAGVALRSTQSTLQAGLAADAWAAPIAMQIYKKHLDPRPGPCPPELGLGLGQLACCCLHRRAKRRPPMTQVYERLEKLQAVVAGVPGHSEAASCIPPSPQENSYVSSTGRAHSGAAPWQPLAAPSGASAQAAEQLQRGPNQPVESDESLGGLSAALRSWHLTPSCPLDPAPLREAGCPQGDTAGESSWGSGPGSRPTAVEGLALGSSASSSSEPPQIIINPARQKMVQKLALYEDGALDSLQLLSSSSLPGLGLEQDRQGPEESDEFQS
On to MFSPGQEEHCAPNKEPVKYGELVVLGYNGALPNGDRGRRKSRFALYKRPKANGVKPSTVHVISTPQASKAISCKGQHSISYTLSRNQTVVVEYTHDKDTDMFQVGASTESPIDFVVTDTISGSQNTDEAQITQSTISRFACRIVCDRNEPYTARIFAAGFDSSKNIFLGEKAAKWKNPDGHMDGLTTNGVLVMHPRGGFTEESQPGVWREISVCGDVYTLRETRSAQQRGKLVESETNVLQDGSLIDLCGATLLWRTADGLFHTPTQKHIEALRQEINAARPQCPVGLNTLAFPSINRKEVVEEKQPWAYLSCGHVHGYHNWGHRSDTEANERECPMCRTVGPYVPLWLGCEAGFYVDAGPPTHAFTPCGHVCSEKSAKYWSQIPLPHGTHAFHAACPFCATQLVGEQNCIKLIFQGPID [R106A], for which the “effect of a mutation on the interaction” value was “disrupting interaction”. The result for MFSPGQEEHCAPNKEPVKYGELVVLGYNGALPNGDRGRRKSRFALYKRPKANGVKPSTVHVISTPQASKAISCKGQHSISYTLSRNQTVVVEYTHDKDTDMFQVGRSTESPIDFVVTDTISGSQNTDEAQITQSTISRFACRIVCDRNEPYTARIFAAGFDSSKNIFLGEKAAKWKNPDGHMDGLTAAGVLVMHPRGGFTEESQPGVWREISVCGDVYTLRETRSAQQRGKLVESETNVLQDGSLIDLCGATLLWRTADGLFHTPTQKHIEALRQEINAARPQCPVGLNTLAFPSINRKEVVEEKQPWAYLSCGHVHGYHNWGHRSDTEANERECPMCRTVGPYVPLWLGCEAGFYVDAGPPTHAFTPCGHVCSEKSAKYWSQIPLPHGTHAFHAACPFCATQLVGEQNCIKLIFQGPID [T187A;N188A] reads “disrupting interaction”.
